The experiment addresses CFP-Cav1 (human caveolin-1 with CFP at its N terminus) (human) (UniProt Q03135). The experiment in a line: FRET or BRET.
Chain of UniProt Q03135 (Q03135 whole entry): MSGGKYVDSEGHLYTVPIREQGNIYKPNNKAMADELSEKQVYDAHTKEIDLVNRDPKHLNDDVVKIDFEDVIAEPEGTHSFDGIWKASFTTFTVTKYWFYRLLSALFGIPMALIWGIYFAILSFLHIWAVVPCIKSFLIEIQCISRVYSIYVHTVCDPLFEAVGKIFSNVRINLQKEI

On to “YFP-tagged rat Na/K-ATPase α1 pump-null mutant D371N (natural protein)”, for which the FRET efficiency was determined as 15%.

(Values after paper PMC2542476.)
